The source of these data is patent publication US20250114433A1 (published 2025).

Experiment [1] addresses T1, KRAS G12V peptide on HLA-A*02:01 (human).
T1 peptide: KLVVVGAVGV
Nature of the experiment: multimer staining.

The target of experiment [2] is KRAS 7-16(G12D) SCT tetramer #2 (human). Description: flow cytometry, tetramer labelling of TCR-transduced donor X CD8+ T cells, Tetramer APC against CD8 ef450 [Continued]. Background: In flow cytometry, cells or beads pass a laser one at a time.
For experiment [3], the target named is KRAS 7-16(G12V) SCT tetramer #7. Described as above.
Experiment [4] addresses T2, KRAS G12D (same sequence in NRAS and HRAS G12D) peptide on HLA-A*11:01 (human).
T2 peptide: VVVGADGVGK
Description: cytokine release.

Experiment [5] concerns the target T3, KRAS G12V (same sequence in NRAS and HRAS G12V) peptide on HLA-A*11:01 (human).
T3 peptide: VVGAVGVGK
Nature of the experiment: cytokine release.

In experiment [6] the target is T4, KRAS G12V (same sequence in NRAS and HRAS G12V) peptide on HLA-A*11:01 (human).
T4 peptide: VVVGAVGVGK
Nature of the experiment: cytokine release.

In experiment [7] the target is HLA-A2 (DM)/KRAS (5-14_G12V)-peptide multimer. Nature of the experiment: flow cytometry, Tet+ gate frequency; A2DM/KRAS G12V 5-14 tetramer at 1:100 [Continued].
Experiment [8] has the same target. Nature of the experiment: flow cytometry, Tet+ gate frequency; A2DM/KRAS G12V 5-14 tetramer at 1:50 [Continued].
The target of experiment [9] is A2/KRAS G12V 5-14 (human), A*02:0. Nature of the experiment: flow cytometry, Tet+ gate frequency; A2/KRAS G12V 5-14 tetramer at 1:400; no-tetramer control Tet+ 0.
Experiment [10] has as its target HLA-A2 (DM)/KRAS (5-14_G12V)-peptide multimer. Description: flow cytometry, Tet+ gate frequency; A2DM/KRAS G12V 5-14 tetramer at 1:400 [Continued].
The target is the same in experiment [11]. Description: flow cytometry, Tet+ gate frequency; A2DM/KRAS G12V 5-14 tetramer at 1:200 [Continued].
The target in experiment [12] is T5, KRAS G12D (same sequence in NRAS and HRAS G12D) peptide on HLA-A*11:01 (human).
T5 peptide: VVGADGVGK
Description: cytokine release.

Where a chain is given by its changes, count along the chain named.

B1: A2 KRAS TCR09 (TCR, V domains shown)
Valpha: GESVGLHLPTLSVQEGDNSIINCAYSNSASDYFIWYKQESGKGPQFIIDIRSNMDKRQGQRVTVLLNKTVKHLSLQIAATQPGDSAVYFCAEIFNDYKLSFGAGTTVTVRA
Vbeta: EAQVTQNPRYLITVTGKKLTVTCSQNMNHEYMSWYRQDPGLGLRQIYYSMNVEVTDKGDVPEGYKVSRKEKRNFPLILESPSPNQTSLYFCASSQAGLGNEQFFGPGTRLTVL
For the molecule B1, in [1], the binding result is listed as “recognises”.

B2: A2 KRAS TCR19 (TCR, V domains shown)
Valpha: AQSVSQHNHHVILSEAASLELGCNYSYGGTVNLFWYVQYPGQHLQLLLKYFSGDPLVKGIKGFEAEFIKSKFSFNLRKPSVQWSDTAEYFCAVNDPSDYKLSFGAGTTVTVRA
Vbeta: DGGITQSPKYLFRKEGQNVTLSCEQNLNHDAMYWYRQDPGQGLRLIYYSQIVNDFQKGDIAEGYSVSREKKESFPLTVTSAQKNPTAFYLCASRSDRNEQFFGPGTRLTVL
Turning to B2, the binding result in experiment [1] is “recognises”.

B3: A2 KRAS TCR05 (TCR, V domains shown)
Valpha: AQSVTQPDIHITVSEGASLELRCNYSYGATPYLFWYVQSPGQGLQLLLKYFSGDTLVQGIKGFEAEFKRSQSSFNLRKPSVHWSDAAEYFCAVGDENTGFQKLVFGTGTRLLVSP
Vbeta: DVKVTQSSRYLVKRTGEKVFLECVQDMDHENMFWYRQDPGLGLRLIYFSYDVKMKEKGDIPEGYSVSREKKERFSLILESASTNQTSMYLCASALRGTYEQYFGPGTRLTVT
Consider B3, for which the binding result in [1] is “recognises”.

B4: A2 KRAS TCR18 (TCR, V domains shown)
Valpha: GEDVEQSLFLSVREGDSSVINCTYTDSSSTYLYWYKQEPGAGLQLLTYIFSNMDMKQDQRLTVLLNKKDKHLSLRIADTQTGDSAIYFCAVLLDNQGGKLIFGQGTELSVKP
Vbeta: B3 Vbeta with A94R, L95G, R96L, G97S, Y99D, E100T, T112L
As to B4, the binding result in experiment [1] was “recognises”.

B5: A2 KRAS TCR08 (TCR, V domains shown)
Valpha: GEDVEQSLFLSVREGDSSVINCTYTDSSSTYLYWYKQEPGAGLQLLTYIFSNMDMKQDQRLTVLLNKKDKHLSLRIADTQTGDSAIYFCAERIDSGNTPLVFGKGTRLSVIA
Vbeta: B3 Vbeta with S93I, A94E, L95P, R96P, G97T, T98G, Y99N
As to B5, the binding result in [1] is reported as “recognises”.

B6: A2 KRAS TCR03 (TCR, V domains shown)
Valpha: GEDVEQSLFLSVREGDSSVINCTYTDSSSTYLYWYKQEPGAGLQLLTYIFSNMDMKQDQRLTVLLNKKDKHLSLRIADTQTGDSAIYFCAERTDTDKLIFGTGTRLQVFP
Vbeta: GAGVSQTPSNKVTEKGKYVELRCDPISGHTALYWYRQSLGQGPEFLIYFQGTGAADDSGLPNDRFFAVRPEGSVSTLKIQRTERGDSAVYLCASSPLAANEQFFGPGTRLTVL
For the molecule B6, the binding result in experiment [1] is listed as “recognises”.

B7: A2 KRAS TCR15 (TCR, V domains shown)
Valpha: B6 Valpha with R92M, T93M
Vbeta: EAGVAQSPRYKIIEKRQSVAFWCNPISGHATLYWYQQILGQGPKLLIQFQNNGVVDDSQLPKDRFSAERLKGVDSTLKIQPAKLEDSAVYLCASSLPSGNEQFFGPGTRLTVL
With B7, the binding result in experiment [1] is “recognises”.

B8: TCR_20 (TCR, V domains shown)
V domain 1: DAKTTQPPSMDCAEGRAANLPCNHSTISGNEYVYWYRQIHSQGPQYIIHGLKNNETNEMASLIITEDRKSSTLILPHATLRDTAVYYCIVRLNSGNTPLVFGKGTRLSVIA
V domain 2: EAGVAQSPRYKIIEKRQSVAFWCNPISGHATLYWYQQILGQGPKLLIQFQNNGVVDDSQLPKDRFSAERLKGVDSTLKIQPAKLEDSAVYLCASSPTFPAGDRDTQYFGPGTRLTVLE
In the case of B8, the tetramer gate (share of cells in the gate; unit not given) was found to be 3.48 in [2] and 3.96 in [3].

B9: TCR13 (TCR, V domains shown)
Valpha: QKEVEQDPGPLSVPEGAIVSLNCTYSNSAFQYFMWYRQYSRKGPELLMYTYSSGNKEDGRFTAQVDKSSKYISLFIRDSQPSDSATYLCAMSASAAGNKLTFGGGTRVLVKP
Vbeta: EADIYQTPRYLVIGTGKKITLECSQTMGHDKMYWYQQDPGMELHLIHYSYGVNSTEKGDLSSESTVSRIRTEHFPLTLESARPSHTSQYLCASSEGLYNEQFFGPGTRLTVL
Regarding B9, the binding result in experiment [4] is given as “recognises”; in [5], “no recognition”; in experiment [6] it was “no recognition”. Further, the Tet+ was 45 in [7]; 58.7 in [8]; 84.6 in experiment [9]; 9.2 in experiment [10]; 33.7 in experiment [11]. In addition, the tetramer gate (share of cells in the gate; unit not given) came out at 82.8 in [2] and 5.19 in experiment [3].

B10: A2 KRAS TCR11 (TCR, V domains shown)
Valpha: DQQVKQNSPSLSVQEGRISILNCDYTNSMFDYFLWYKKYPAEGPTFLISISSIKDKNEDGRFTVFLNKSAKHLSLHIVPSQPGDSAVYFCAAISLTSGTYKYIFGTGTRLKVLA
Vbeta: DTEVTQTPKHLVMGMTNKKSLKCEQHMGHRAMYWYKQKAKKPPELMFVYSYEKLSINESVPSRFSPECPNSSLLNLHLHALQPEDSALYLCASSQDLGTVYEQYFGPGTRLTVT
Take B10: the binding result in [1] is “recognises”.

B11: A2 KRAS TCR12 (TCR, V domains shown)
Valpha: AQSVTQLDSQVPVFEEAPVELRCNYSSSVSVYLFWYVQYPNQGLQLLLKYLSGSTLVESINGFEAEFNKSQTSFHLRKPSVHISDTAEYFCAVTRDDKIIFGKGTRLHILP
Vbeta: DVKVTQSSRYLVKRTGEKVFLECVQDMDHENMFWYRQDPGLGLRLIYFSYDVKMKEKGDIPEGYSVSREKKERFSLILESASTNQTSMYLCASSLQVSGVAGYTFGSGTRLTVV
B11: in experiment [1], the binding result is on record as “recognises”.

B12: 141_1 TCR (TCR, V domains shown)
V domain 1: AQTVTQSQPEMSVQEAETVTLSCTYDTSESDYYLFWYKQPPSRQMILVIRQEAYKQQNATENRFSVNFQKAAKSFSLKISDSQLGDAAMYFCALKTSYDKVIFGPGTSLSVIP
V domain 2: NAGVTQTPKFQVLKTGQSMTLQCAQDMNHEYMSWYRQDPGMGLRLIHYSVGAGITDQGEVPNGYNVSRSTTEDFPLRLLSAAPSQTSVYFCASSLGAGEWKSPLHFGNGTRLTVTE
Consider B12, for which the tetramer gate (share of cells in the gate; unit not given) in [2] was determined as 14.8; in [3], 4.06.

B13: A11 KRAS TCR_141_1 (TCR, V domains shown)
Valpha: B12 V domain 1
Vbeta: NAGVTQTPKFQVLKTGQSMTLQCAQDMNHEYMSWYRQDPGMGLRLIHYSVGAGITDQGEVPNGYNVSRSTTEDFPLRLLSAAPSQTSVYFCASSLGAGEWKSPLHFGNGTRLTVT
B13: the binding result was “recognises” in experiment [4], “no recognition” in experiment [12], “no recognition” in experiment [5] and “no recognition” in experiment [6].

B14: A2 KRAS TCR04 (TCR, V domains shown)
Valpha: AQKVTQAQTEISVVEKEDVTLDCVYETRDTTYYLFWYKQPPSGELVFLIRRNSFDEQNEISGRYSWNFQKSTSSFNFTITASQVVDSAVYFCALMDSSYKLIFGSGTRLLVRP
Vbeta: GAVVSQHPSWVICKSGTSVKIECRSLDFQATTMFWYRQFPKQSLMLMATSNEGSKATYEQGVEKDKFLINHASLTLSTLTVTSAHPEDSSFYICSAFLSGSADTQYFGPGTRLTVL
As to B14, in experiment [1], the binding result is recorded as “recognises”.
